Data published in the supplement of paper PMC10567573.

B1: SNAP91 (parent)
chain: FAAPSPATTASPAKVDSSGVIDLF

Variants of: B1
Test: protein stability index of a GFP-peptide fusion (GPS, HEK-293T) (PSI 1-6); higher = more stable
Conditions: c terminus: a fixed tail appended
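Note: lentivirally expressed fusions sorted by FACS into six bins by GFP to DsRed ratio, PSI derived from sequencing read proportions per bin multiplied by bin number.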

Variant	protein stability index
K14R	2.28
K14S	2.29
K14T	2.38
K14V	2.77
K14W	1.58
K14Y	2.24
V15A	2.52
V15C	1.97
V15D	2.68
V15E	3.03
V15F	1.97
V15G	2.41
V15H	2.32
V15I	2.24
V15K	2.92
V15L	2.23
V15M	2.56
V15N	2.52
V15P	2.65
V15Q	2.04
V15R	2.6
V15S	2.93
V15T	2.82
V15W	2.1

Variant	protein stability index
V15Y	1.98
D16A	1.9
D16C	1.54
D16E	2.17
D16F	1.68
D16G	2.11
D16H	2.82
D16I	1.99
D16K	2.17
D16L	2.6
D16M	1.92
D16N	2.53
D16P	2.19
D16Q	1.9
D16R	2.03
D16S	1.91
D16T	2.54
D16V	2.3
D16W	1.46
D16Y	1.53
S17A	2.55
S17C	1.86
S17D	2.55
S17E	2.45

Variant	protein stability index
S17F	2.21
S17G	2.33
S17H	2.71
S17I	1.7
S17K	2.29
S17L	1.96
S17M	2.16
S17N	2.78
S17P	2.39
S17Q	2.52
S17R	2.27
S17T	2.43
S17V	2.17
S17W	1.63
S17Y	2.7
S18A	2.29
S18C	2.1
S18D	2.97
S18E	2.72
S18F	1.67
S18G	2.56
S18H	2.12
S18I	1.9
S18K	2.46

Variant	protein stability index
S18L	2.23
S18M	2.06
S18N	2.43
S18P	2.83
S18Q	2.49
S18R	2.11
S18T	2.49
S18V	2.1
S18W	1.37
S18Y	1.66
G19A	2.56
G19C	1.83
G19D	2.94
G19E	2.84
G19F	1.26
G19H	2.4
G19I	1.41
G19K	2.38
G19L	2.24
G19M	1.92
G19N	2.59
G19P	2.06
G19Q	2.69
G19R	2.44

Variant	protein stability index
G19S	2.58
G19T	2.57
G19V	2.07
G19W	1.55
G19Y	1.58
V20A	2.45
V20C	2.08
V20D	3.22
V20E	3.42
V20F	1.56
V20G	2.77
V20H	2.72
V20I	2.25
V20K	2.78
V20L	2.57
V20M	2.5
V20N	2.77
V20P	2.79
V20Q	2.96
V20R	2.63
V20S	2.43
V20T	2.51
V20W	1.54
V20Y	2.07

Variant	protein stability index
I21A	2.49
I21C	2.63
I21D	3.96
I21E	3.96
I21F	2.25
I21G	3.64
I21H	2.51
I21K	3.79
I21L	2.65
I21M	3.15
I21N	4.12
I21P	2.8
I21Q	3.05
I21R	3.23
I21S	3.37
I21T	3.07
I21V	3.22
I21W	1.88
I21Y	2.11
D22A	2.03
D22E	2.46
D22F	2.93
D22G	1.75
D22H	1.94

Variant	protein stability index
D22K	2.11
D22L	2.57
D22M	2.81
D22N	2.24
D22P	2.68
D22Q	2.26
D22R	1.87
D22S	1.76
D22T	1.73
D22V	1.75
D22Y	2.04
L23A	3.78
L23C	2.79
L23D	4.69
L23E	4.4
L23F	2.29
L23G	3.51
L23H	4.27
L23I	2.51
L23K	4.12
L23M	3.25
L23N	4.14
L23P	3.74
